Source: the supplement of paper PMC10065799, “High-throughput profiling of sequence recognition by tyrosine kinases and SH2 domains using bacterial peptide display” (eLife, 2023)

Legend:
SHP2-C SH2 = assay: SH2 binding enrichment of the phosphorylated peptide, bacterial display (enrichment ratio); higher = better substrate or ligand; peptides without Tyr show the background
c-Src SH2 = assay: as above
Grb2 SH2 = Grb2 SH2 (UniProt P62993); assay: as above
MERTK = MERTK (UniProt Q12866); assay: phosphorylation enrichment, bacterial display (enrichment ratio); higher = better substrate or ligand; peptides without Tyr show the background
Jak2 = Jak2 (UniProt O60674); assay: as above
FGFR3 = FGFR3 (UniProt P22607); assay: as above
AncSZ = assay: as above
EPHB2 = EPHB2 (UniProt P29323); assay: as above
Fer (mouse) = assay: as above
EPHB1 = EPHB1 (UniProt P54762); assay: as above
Fes = Fes (UniProt P07332); assay: as above
c-Abl (mouse) = assay: as above
c-Src = assay: as above
FGFR1 = FGFR1 (UniProt P11362); assay: as above
Hck = Hck (UniProt P08631); assay: as above
Fyn = Fyn (UniProt P06241); assay: as above
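Wherever SH2 binding enrichment of the phosphorylated peptide, bacterial display is given: peptide library displayed on the E. coli surface as eCPX fusions, selected cells deep-sequenced, score is each peptide's frequency after selection divided by its frequency in the input.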
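Wherever phosphorylation enrichment, bacterial display is given: 11-residue human phosphosite peptides and single-mutation variants displayed on the E. coli surface, counted by deep sequencing, each peptide's frequency after selection divided by its frequency in the unselected input library; frequency after pTyr selection over input frequency; kinase dosed for 20-30% of maximal phosphorylation in three min.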

Chain of EPHB1 (P54762 whole entry, looked up): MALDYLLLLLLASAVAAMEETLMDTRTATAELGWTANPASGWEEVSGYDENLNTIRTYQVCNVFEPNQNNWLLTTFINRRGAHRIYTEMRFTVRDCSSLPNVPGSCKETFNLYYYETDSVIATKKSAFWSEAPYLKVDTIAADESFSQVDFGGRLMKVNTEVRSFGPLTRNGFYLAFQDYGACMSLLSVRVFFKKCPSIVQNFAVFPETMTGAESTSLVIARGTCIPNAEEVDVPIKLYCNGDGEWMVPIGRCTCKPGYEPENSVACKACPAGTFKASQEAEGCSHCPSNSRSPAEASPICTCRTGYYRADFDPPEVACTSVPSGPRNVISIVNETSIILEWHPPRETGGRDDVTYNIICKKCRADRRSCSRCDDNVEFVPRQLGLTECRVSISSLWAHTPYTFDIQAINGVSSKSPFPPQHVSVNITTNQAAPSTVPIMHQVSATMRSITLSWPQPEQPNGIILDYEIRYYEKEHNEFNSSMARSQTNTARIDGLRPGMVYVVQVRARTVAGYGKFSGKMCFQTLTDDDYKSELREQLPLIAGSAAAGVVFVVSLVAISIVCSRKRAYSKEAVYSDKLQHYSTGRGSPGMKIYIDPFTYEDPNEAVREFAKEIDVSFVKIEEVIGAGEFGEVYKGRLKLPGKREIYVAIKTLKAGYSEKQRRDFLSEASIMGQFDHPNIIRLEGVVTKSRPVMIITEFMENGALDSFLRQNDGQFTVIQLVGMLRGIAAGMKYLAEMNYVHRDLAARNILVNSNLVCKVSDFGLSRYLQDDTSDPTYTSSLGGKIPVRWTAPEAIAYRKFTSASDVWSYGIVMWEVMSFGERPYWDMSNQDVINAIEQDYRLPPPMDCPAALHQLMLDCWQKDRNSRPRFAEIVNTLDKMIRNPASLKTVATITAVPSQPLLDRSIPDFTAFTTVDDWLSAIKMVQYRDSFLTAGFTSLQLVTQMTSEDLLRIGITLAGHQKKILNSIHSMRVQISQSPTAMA
Chain of Fes (P07332 whole entry, looked up): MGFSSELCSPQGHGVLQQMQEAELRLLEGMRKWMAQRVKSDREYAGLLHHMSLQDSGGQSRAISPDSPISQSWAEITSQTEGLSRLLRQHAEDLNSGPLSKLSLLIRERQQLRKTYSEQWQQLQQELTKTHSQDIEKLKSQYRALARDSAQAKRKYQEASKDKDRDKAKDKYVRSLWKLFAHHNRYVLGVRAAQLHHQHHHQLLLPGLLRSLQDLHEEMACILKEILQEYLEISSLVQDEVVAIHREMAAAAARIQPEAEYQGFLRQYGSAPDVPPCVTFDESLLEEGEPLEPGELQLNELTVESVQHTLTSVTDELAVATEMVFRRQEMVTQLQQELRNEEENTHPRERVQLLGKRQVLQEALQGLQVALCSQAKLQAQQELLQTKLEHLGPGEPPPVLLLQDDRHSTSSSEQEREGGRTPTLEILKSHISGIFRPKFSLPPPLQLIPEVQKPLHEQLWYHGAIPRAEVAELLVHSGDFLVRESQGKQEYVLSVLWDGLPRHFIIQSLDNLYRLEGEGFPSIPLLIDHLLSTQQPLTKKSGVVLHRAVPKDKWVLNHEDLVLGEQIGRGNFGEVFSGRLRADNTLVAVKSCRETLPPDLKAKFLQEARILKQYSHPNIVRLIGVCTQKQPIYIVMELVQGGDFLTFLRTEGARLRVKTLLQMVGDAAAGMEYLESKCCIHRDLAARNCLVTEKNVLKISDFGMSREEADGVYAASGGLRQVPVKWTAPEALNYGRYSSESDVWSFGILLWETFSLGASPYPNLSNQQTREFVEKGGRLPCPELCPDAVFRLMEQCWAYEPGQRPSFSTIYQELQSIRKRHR
Chain of Hck (P08631 whole entry, looked up): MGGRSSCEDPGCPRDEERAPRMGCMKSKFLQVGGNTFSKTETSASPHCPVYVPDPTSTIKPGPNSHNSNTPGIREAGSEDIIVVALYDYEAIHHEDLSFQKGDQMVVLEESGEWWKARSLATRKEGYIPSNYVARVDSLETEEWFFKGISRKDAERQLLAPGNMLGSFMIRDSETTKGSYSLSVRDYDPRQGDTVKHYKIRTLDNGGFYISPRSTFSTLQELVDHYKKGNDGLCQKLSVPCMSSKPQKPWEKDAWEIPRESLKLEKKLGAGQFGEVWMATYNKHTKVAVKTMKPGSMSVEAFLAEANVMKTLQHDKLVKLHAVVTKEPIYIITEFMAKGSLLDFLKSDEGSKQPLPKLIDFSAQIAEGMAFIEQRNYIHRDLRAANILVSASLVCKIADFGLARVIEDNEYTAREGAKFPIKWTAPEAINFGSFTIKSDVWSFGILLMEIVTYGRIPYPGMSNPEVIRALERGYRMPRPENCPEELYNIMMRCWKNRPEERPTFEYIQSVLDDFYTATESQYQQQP
Chain of MERTK (Q12866 whole entry, looked up): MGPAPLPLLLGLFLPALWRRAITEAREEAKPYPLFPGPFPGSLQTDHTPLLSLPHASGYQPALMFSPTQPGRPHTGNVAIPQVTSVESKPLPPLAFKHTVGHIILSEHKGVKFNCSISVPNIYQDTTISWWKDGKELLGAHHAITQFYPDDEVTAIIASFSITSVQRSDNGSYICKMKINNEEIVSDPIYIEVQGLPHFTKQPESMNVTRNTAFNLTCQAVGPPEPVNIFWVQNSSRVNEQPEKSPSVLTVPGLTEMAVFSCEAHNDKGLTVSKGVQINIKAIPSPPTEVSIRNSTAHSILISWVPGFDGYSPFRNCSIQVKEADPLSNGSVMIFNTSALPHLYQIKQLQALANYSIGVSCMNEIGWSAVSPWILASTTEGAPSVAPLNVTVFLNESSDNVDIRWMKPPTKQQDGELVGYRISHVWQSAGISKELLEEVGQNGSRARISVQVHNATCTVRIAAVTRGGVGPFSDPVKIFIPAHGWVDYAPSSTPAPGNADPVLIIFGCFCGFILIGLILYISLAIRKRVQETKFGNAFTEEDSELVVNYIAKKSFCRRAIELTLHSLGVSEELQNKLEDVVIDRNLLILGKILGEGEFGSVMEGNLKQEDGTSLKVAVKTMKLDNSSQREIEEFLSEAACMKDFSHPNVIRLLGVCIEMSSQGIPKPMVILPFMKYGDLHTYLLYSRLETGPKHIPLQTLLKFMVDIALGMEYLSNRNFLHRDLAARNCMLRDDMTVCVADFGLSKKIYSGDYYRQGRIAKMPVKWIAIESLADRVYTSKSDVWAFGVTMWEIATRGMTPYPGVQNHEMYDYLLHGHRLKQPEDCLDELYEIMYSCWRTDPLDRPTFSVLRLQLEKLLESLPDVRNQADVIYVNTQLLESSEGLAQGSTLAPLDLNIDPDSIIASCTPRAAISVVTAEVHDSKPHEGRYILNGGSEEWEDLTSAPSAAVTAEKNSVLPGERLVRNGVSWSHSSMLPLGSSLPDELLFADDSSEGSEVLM
Chain of Jak2 (O60674 whole entry, looked up): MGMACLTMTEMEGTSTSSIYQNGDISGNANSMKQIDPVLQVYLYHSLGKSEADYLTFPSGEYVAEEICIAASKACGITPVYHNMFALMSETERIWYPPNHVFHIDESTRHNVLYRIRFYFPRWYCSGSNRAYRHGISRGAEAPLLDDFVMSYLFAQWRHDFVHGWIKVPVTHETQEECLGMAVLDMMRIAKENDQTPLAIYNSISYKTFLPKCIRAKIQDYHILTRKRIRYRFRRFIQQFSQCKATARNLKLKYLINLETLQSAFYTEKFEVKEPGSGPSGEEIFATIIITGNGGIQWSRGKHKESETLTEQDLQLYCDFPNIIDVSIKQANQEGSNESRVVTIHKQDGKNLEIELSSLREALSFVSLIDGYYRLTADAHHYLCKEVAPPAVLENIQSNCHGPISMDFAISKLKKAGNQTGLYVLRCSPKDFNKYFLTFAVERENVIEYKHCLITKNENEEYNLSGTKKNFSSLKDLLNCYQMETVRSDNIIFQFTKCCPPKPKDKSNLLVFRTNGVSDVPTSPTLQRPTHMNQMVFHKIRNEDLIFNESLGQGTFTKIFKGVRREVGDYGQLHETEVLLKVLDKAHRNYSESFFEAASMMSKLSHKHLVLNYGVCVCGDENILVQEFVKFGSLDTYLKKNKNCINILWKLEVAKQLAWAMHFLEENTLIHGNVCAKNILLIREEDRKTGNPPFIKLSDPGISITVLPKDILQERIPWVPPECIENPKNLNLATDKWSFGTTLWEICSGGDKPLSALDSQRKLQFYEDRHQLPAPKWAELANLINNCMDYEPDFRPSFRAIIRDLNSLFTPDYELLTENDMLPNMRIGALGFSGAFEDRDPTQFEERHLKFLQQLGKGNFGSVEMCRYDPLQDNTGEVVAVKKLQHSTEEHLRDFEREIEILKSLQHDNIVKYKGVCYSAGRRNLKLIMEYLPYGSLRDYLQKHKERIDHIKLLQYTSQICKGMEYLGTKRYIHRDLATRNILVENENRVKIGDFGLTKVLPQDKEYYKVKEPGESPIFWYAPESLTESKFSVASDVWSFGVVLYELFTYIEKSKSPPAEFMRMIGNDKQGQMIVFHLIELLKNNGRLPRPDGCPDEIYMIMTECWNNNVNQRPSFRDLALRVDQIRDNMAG
Chain of Fyn (P06241 whole entry, looked up, the tested form may be a part): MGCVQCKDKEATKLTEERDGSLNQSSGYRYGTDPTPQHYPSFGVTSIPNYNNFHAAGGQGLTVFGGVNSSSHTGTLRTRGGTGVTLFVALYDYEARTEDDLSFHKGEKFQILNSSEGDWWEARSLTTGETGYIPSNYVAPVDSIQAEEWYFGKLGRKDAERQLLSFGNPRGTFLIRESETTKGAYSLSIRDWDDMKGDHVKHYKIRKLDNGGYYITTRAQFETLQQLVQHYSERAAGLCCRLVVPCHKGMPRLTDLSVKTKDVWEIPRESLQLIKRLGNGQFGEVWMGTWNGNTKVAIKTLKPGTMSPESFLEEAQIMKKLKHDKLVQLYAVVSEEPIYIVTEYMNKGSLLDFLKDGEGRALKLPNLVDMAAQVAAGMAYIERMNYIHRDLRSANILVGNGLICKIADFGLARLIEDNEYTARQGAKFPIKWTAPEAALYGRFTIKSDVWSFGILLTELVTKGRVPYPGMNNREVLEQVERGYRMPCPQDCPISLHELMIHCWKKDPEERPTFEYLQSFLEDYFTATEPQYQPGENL

| Sequence | SH2 binding enrichment (SHP2-C SH2) | SH2 binding enrichment (c-Src SH2) | SH2 binding enrichment (Grb2 SH2) | phosphorylation enrichment (MERTK) | phosphorylation enrichment (Jak2) | phosphorylation enrichment (FGFR3) | phosphorylation enrichment (AncSZ) | phosphorylation enrichment (EPHB2) | phosphorylation enrichment (Fer (mouse)) | phosphorylation enrichment (EPHB1) | phosphorylation enrichment (Fes) | phosphorylation enrichment (c-Abl (mouse)) | phosphorylation enrichment (c-Src) | phosphorylation enrichment (FGFR1) | phosphorylation enrichment (Hck) | phosphorylation enrichment (Fyn) |
| --- | --- | --- | --- | --- | --- | --- | --- | --- | --- | --- | --- | --- | --- | --- | --- | --- |
| MPPHICAITDT [MYH9_Y151_Y151C] | 0.706 | 0.657 | 1.1 | 0.473 | 0.981 | 0.685 | 0.809 | 0.53 | 0.631 | 0.628 | 1.1 | 1.34 | 0.529 | 0.578 | 0.538 | 0.51 |
| MSRDVYSTDCY [NTRK2_Y702_Y706C] | 0.719 | 0.932 | 1.15 | 1.51 | 1.06 | 0.766 | 0.993 | 0.701 | 0.631 | 0.718 | 1.14 | 0.993 | 2.32 | 0.726 | 0.972 | 2.1 |
| NFADPYRQLQF [CTNND2_Y503_YF] | 1.04 | 0.555 | 0.878 | 0.454 | 0.667 | 0.557 | 0.765 | 0.502 | 0.436 | 0.494 | 0.826 | 0.654 | 0.563 | 0.516 | 0.539 | 0.473 |
| NIKKEYAKMVQ [PMS2_Y181] | 0.791 | 0.623 | 0.824 | 0.392 | 0.436 | 0.39 | 0.549 | 0.413 | 0.294 | 0.345 | 0.615 | 0.422 | 0.312 | 0.358 | 0.451 | 0.335 |
| NKYTTYLPWLP [C9orf24_Y126_R129W] | 1.01 | 0.739 | 1.14 | 3.37 | 2.34 | 2.25 | 1.08 | 12.8 | 9.65 | 6.9 | 0.944 | 1.94 | 4.72 | 2.77 | 8.09 | 6.75 |
| NLMPAYFKCIQ [CYP21A2_Y190_YF] | 0.639 | 0.494 | 0.904 | 0.539 | 1.61 | 1.01 | 1.4 | 0.707 | 0.768 | 0.74 | 1.6 | 1.09 | 0.526 | 0.617 | 0.61 | 0.546 |
| NNHGNYIVLLG [ETFDH_Y172_R175L] | 1.14 | 0.587 | 0.983 | 1.66 | 0.833 | 1.71 | 0.979 | 3.86 | 0.363 | 7.55 | 0.902 | 0.644 | 0.522 | 2.81 | 0.433 | 0.458 |
| NNIDYYKKTTN [FGFR2_Y657] | 0.603 | 0.459 | 1.02 | 0.437 | 0.524 | 0.495 | 0.616 | 0.527 | 0.6 | 0.543 | 0.703 | 0.517 | 0.492 | 0.456 | 0.764 | 0.633 |
| NTFEKYWLFFQ [GATM_Y103_P105L_YF] | 0.886 | 0.758 | 0.975 | 0.544 | 1.2 | 1 | 1.29 | 0.682 | 0.478 | 0.721 | 1.44 | 1 | 0.538 | 0.761 | 0.68 | 0.501 |
| NTGGFYDLFGG [PTPN11_Y63_D61G_YF] | 0.784 | 0.677 | 1.09 | 9.2 | 1.1 | 0.719 | 1.05 | 0.899 | 3.82 | 0.829 | 1.18 | 0.836 | 4.17 | 0.478 | 5.68 | 7.59 |
| NTGLDYIKFTW [HRH1_Y386] | 0.811 | 0.475 | 0.892 | 0.605 | 1.92 | 1.26 | 1.37 | 0.742 | 0.402 | 0.647 | 1.31 | 0.902 | 0.612 | 1.64 | 0.495 | 0.39 |
| NTGLEYIKFTW [HRH1_Y386_D385E] | 0.778 | 0.614 | 1.11 | 0.474 | 1.37 | 0.851 | 1.16 | 0.633 | 0.449 | 0.572 | 1.09 | 0.657 | 0.495 | 0.76 | 0.58 | 0.531 |
| NTYEKYWLFYQ [GATM_Y103_P105L] | 1.12 | 0.807 | 0.788 | 1.78 | 1.18 | 1.65 | 1.26 | 2.94 | 0.874 | 4.77 | 1.39 | 0.8 | 2.23 | 1.7 | 1.36 | 1.5 |
| NVFGNYNQQPS [HNRNPA2B1_Y306_D302V] | 0.682 | 0.584 | 0.822 | 0.375 | 0.687 | 0.471 | 0.492 | 0.375 | 0.315 | 0.468 | 0.713 | 0.674 | 0.384 | 0.356 | 0.484 | 0.401 |
| PARLEYFENEK [IRS1_Y46_YF] | 0.817 | 0.647 | 0.834 | 0.784 | 2 | 0.957 | 1.35 | 0.777 | 0.661 | 0.714 | 1.61 | 0.999 | 0.684 | 1.03 | 0.709 | 0.471 |
| PCLLRYLQLDF [ASB10_Y457_R453C] | 1.26 | 1.26 | 1.12 | 0.733 | 1.51 | 1.14 | 1.5 | 0.538 | 0.968 | 0.833 | 1.72 | 1.12 | 0.502 | 1.18 | 0.783 | 0.497 |
| PDDPSYSLVDD [PSTPIP2_Y323_N322S] | 0.724 | 3.29 | 1.29 | 0.563 | 1.75 | 1.08 | 1.6 | 0.8 | 0.728 | 0.999 | 1.53 | 1.03 | 0.91 | 0.899 | 0.679 | 0.885 |
| PDSVDYRKKGF [CTSK_Y121_YF] | 0.638 | 0.625 | 0.755 | 0.368 | 0.49 | 0.88 | 0.524 | 0.646 | 0.521 | 0.468 | 0.536 | 0.391 | 0.366 | 0.402 | 0.55 | 0.32 |
| PESCLYKESWI [IQGAP2_Y630_L635I] | 0.315 | 0.532 | 0.827 | 0.6 | 1.54 | 1.17 | 1.18 | 1.2 | 1.26 | 0.931 | 1.97 | 1.48 | 0.825 | 1.25 | 0.872 | 0.493 |
| PHQTIYSALMI [FGF23_Y70] | 0.598 | 0.495 | 0.68 | 13.1 | 1.7 | 1.61 | 1.26 | 4.45 | 20.3 | 5.93 | 3.94 | 20.6 | 10.4 | 1.88 | 12.8 | 12.7 |
| PHRSIYFSSPK [MPG_Y75_Y71H] | 0.609 | 0.46 | 1.01 | 0.687 | 0.584 | 0.927 | 0.498 | 0.61 | 0.663 | 0.674 | 0.859 | 0.862 | 0.786 | 0.803 | 1.48 | 0.982 |

Continued, in another order:

| SH2 binding enrichment (SHP2-C SH2) | SH2 binding enrichment (c-Src SH2) | SH2 binding enrichment (Grb2 SH2) | Sequence | phosphorylation enrichment (MERTK) | phosphorylation enrichment (Jak2) | phosphorylation enrichment (FGFR3) | phosphorylation enrichment (AncSZ) | phosphorylation enrichment (EPHB2) | phosphorylation enrichment (Fer (mouse)) | phosphorylation enrichment (EPHB1) | phosphorylation enrichment (Fes) | phosphorylation enrichment (c-Abl (mouse)) | phosphorylation enrichment (c-Src) | phosphorylation enrichment (FGFR1) | phosphorylation enrichment (Hck) | phosphorylation enrichment (Fyn) |
| --- | --- | --- | --- | --- | --- | --- | --- | --- | --- | --- | --- | --- | --- | --- | --- | --- |
| 1.51 | 1.71 | 1.21 | MSSLPYMKMIF [SLC4A11_Y853] | 0.566 | 1.65 | 0.706 | 0.946 | 0.541 | 1.05 | 0.474 | 1.03 | 0.732 | 0.813 | 0.753 | 0.692 | 0.421 |
| 0.488 | 0.55 | 0.711 | MVIPNYSSRTE [UROC1_Y185] | 0.425 | 0.486 | 0.416 | 0.535 | 0.462 | 0.435 | 0.477 | 0.642 | 0.438 | 0.446 | 0.406 | 0.329 | 0.406 |
| 0.636 | 0.392 | 0.713 | NKEAIYSGFIR [SMCHD1_Y283_YF] | 12.7 | 0.711 | 0.557 | 0.78 | 7.14 | 5.17 | 5.18 | 1.01 | 33.6 | 9.78 | 0.59 | 13.1 | 14.5 |
| 0.739 | 0.692 | 0.787 | NPETCYQRLKK [TK2_Y190] | 0.469 | 0.966 | 0.545 | 1.03 | 0.603 | 0.432 | 0.527 | 1.03 | 0.839 | 0.483 | 0.481 | 0.736 | 0.412 |
| 0.727 | 0.555 | 0.886 | NQDRTYFESVR [SPEN_Y632_YF] | 0.469 | 0.865 | 0.69 | 0.852 | 0.617 | 0.665 | 0.507 | 0.931 | 0.618 | 0.678 | 0.602 | 0.573 | 0.571 |
| 1.04 | 3.98 | 0.901 | NQDRTYYERVR [SPEN_Y632_S635R] | 0.452 | 0.499 | 0.486 | 0.617 | 0.467 | 0.511 | 0.411 | 0.639 | 0.525 | 0.896 | 0.457 | 2.31 | 0.606 |
| 0.612 | 0.522 | 0.735 | NQELIYEGRRL [TBK1_Y354] | 0.581 | 0.581 | 0.808 | 0.755 | 0.668 | 8.54 | 0.518 | 0.763 | 5 | 7.87 | 0.472 | 9.83 | 8.61 |
| 0.778 | 0.506 | 1.15 | NRLNDYIFSFD [RARS1_Y516] | 0.475 | 0.977 | 0.729 | 1.09 | 0.538 | 0.424 | 0.538 | 1.03 | 0.789 | 0.555 | 0.721 | 0.469 | 0.461 |
| 0.612 | 0.395 | 0.768 | NSRFTCKLEVK [USH2A_Y3747_Y3747C_YF] | 0.449 | 1.79 | 1 | 1.45 | 0.618 | 0.533 | 0.629 | 1.66 | 1.48 | 0.504 | 0.563 | 0.508 | 0.378 |
| 0.956 | 0.925 | 1.22 | NTQRPHFKGGG [TYROBP_Y111_Y111H_YF] | 0.353 | 0.553 | 0.443 | 0.447 | 0.632 | 0.293 | 0.378 | 0.735 | 1.01 | 0.448 | 0.318 | 0.407 | 0.286 |
| 0.722 | 2.41 | 0.971 | NTYEKYLGEEY [TF_Y669] | 0.382 | 0.99 | 0.756 | 1.12 | 0.74 | 0.523 | 0.601 | 1.06 | 0.935 | 1.03 | 0.472 | 0.688 | 0.974 |
| 0.472 | 0.39 | 0.811 | PECEWYKNGVK [TTN_Y2112] | 0.532 | 1.32 | 1.19 | 1.55 | 1.05 | 0.719 | 0.759 | 1.96 | 1.31 | 0.555 | 0.821 | 0.73 | 0.692 |
